The values that follow come from patent publication US20250197467A1 (BRIGHT PEAK THERAPEUTICS, published 2025).

Assay [1] addresses T1, IL-18 receptor (IL-18Rαβ) on cells (UniProt Q13478 19-541; O95256 20-599, limits assumed).
T1 sequence (looked up) 1: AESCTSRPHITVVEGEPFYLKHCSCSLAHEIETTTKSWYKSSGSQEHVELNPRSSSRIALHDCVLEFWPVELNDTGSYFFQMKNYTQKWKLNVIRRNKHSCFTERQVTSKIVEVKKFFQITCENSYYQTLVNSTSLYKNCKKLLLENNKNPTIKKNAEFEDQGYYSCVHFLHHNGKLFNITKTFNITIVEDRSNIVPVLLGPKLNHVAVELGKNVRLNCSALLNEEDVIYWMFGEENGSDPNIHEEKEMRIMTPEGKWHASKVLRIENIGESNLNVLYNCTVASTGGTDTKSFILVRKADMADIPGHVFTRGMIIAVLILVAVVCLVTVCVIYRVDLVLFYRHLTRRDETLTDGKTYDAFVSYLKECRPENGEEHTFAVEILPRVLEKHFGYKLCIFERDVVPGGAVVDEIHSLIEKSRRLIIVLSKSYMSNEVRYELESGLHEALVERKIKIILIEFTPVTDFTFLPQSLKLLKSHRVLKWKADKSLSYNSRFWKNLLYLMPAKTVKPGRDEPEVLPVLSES
T1 sequence (looked up) 2: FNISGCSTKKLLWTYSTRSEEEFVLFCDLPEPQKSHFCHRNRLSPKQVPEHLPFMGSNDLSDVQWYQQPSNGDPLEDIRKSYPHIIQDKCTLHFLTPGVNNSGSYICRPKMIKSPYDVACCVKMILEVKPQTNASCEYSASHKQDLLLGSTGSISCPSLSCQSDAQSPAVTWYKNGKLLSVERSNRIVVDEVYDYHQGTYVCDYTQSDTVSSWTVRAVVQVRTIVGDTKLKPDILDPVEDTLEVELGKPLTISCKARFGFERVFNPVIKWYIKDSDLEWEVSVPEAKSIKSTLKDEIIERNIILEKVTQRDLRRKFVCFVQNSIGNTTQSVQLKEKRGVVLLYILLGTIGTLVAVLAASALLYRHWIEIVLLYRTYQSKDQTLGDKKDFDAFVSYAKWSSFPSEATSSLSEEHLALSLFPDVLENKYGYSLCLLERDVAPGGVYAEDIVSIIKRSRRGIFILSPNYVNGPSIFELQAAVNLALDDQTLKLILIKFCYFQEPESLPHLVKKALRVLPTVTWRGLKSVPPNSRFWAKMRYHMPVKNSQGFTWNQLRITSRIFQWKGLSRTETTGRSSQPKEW
Description: cell-based or functional assay.

For assay [2], the target named is T1, IL-18 receptor (IL-18Rαβ) on cells. Description: cell-based or functional assay. The source holds these as a separate data set.
For assay [3] the target is unchanged. The assay is described as follows: cell-based or functional assay. The source holds these as a separate data set.
For assay [4] the target is unchanged. Description: cell-based or functional assay. This is another data set of the same source.
The target is the same in assay [5]. Description: cell-based or functional assay. This is another data set of the same source.
The target of assay [6] is T2, IL-18 receptor alpha subunit (Biotinylated for capture on streptavidin (SAX2) biosensors. The site and tag are not given in the patent.).
T2 construct: also called IL18 receptor alpha (Acro, IL1-H82E7); IL-18Ra
T2 chain: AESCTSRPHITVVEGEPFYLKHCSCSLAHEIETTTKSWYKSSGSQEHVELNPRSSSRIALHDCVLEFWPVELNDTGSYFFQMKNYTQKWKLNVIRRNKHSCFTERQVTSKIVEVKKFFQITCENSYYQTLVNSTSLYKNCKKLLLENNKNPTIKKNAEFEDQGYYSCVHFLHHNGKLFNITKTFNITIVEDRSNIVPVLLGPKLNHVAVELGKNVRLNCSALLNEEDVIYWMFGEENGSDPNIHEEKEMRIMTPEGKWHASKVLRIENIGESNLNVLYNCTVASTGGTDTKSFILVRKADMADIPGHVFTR
Description: BLI (Octet R8), IL-18 receptor alpha on streptavidin (SAX2) biosensor, analyte 1000 nM to 1.25 nM in 1:3 dilutions. From the text:
Act-IL18 candidates C185, C314, and C315 were digested as described above and characterized by BLI. Briefly, undigested and digested samples were compared for their binding against IL18 receptor on an Octet R8 (Sartorius).

B1: C187 (ligand)
chain: MAAEPVEDNCINFVAMKFIDNTLYFIAEDDENLESDPLGLAGYFGKLKSKLSIIRNLNDQVLFIDQGNRPLFEDMTDSDARDNAPRTIFIISMYADSQPRGMAVAISVKCEKISTLSAENKIISFKEMNPPDNIKDTKSDIIFFQRSVPGHDNKMQFESSSYEGYFLAAEKERDLFKLILKKEDELGDRSIMFTVQNED
Take B1: in assay [1], the “Fold potency loss vs C086” value worked out at 29400 fold and the “HEK-blue EC50” value is 1240 nM. In addition, the “Hek Blue reporter assay EC50” value in assay [2] stood at 1240 pM.

B2: C190 (ligand)
chain: MAAEPVEDNCINFVAMKFIDNTLYFIAEDDENLESDYFGKLKSKLSIIRNLNDQVLFIDQGNRPLFEDMTDSDARDNAPRTIFIISMYADSQPRGMAVAISVKCEKISTLSAENKIISFKEMNPPDNIKDTKSDIIFFQRSVPGHDNKMQFESSSYEGYFLAAEKERDLFKLILKKEDELGDRSIMFTVQNED
In the case of B2, in assay [1], the “HEK-blue EC50” value worked out at 404 nM. Also, in assay [2], the “Hek Blue reporter assay EC50” value is 404 pM.

B3: C190 + MMP9 (ligand)
chain: MAAEPVEDNCINFVAMKFIDNTLYFIAEDDENLESDYFGKLKSKLSIIRNLNDQVLFIDQGNRPLFEDMTDSDARDNAPRTIFIISMYADSQPRGMAVAISVKCEKISTLSAENKIISFKEMNPPDNIKDTKSDIIFFQRSVPGHDNKMQFESSSYEGYFLAAEKERDLFKLILKKEDELGDRSIMFTVQNED
Consider B3, for which the “HEK-blue EC50” value in assay [1] is 198 nM. For the same molecule, the “Hek Blue reporter assay EC50” value in assay [2] was determined as 198 pM.

B4: C086 (SEQ ID NO: 30) (ligand)
chain: YFGKLKSKLSIIRNLNDQVLFIDQGNRPLFEDMTDSDARDNAPRTIFIISMYADSQPRGMAVAISVKCEKISTLSAENKIISFKEMNPPDNIKDTKSDIIFFQRSVPGHDNKMQFESSSYEGYFLAAEKERDLFKLILKKEDELGDRSIMFTVQNED
Regarding B4, in assay [1], the “HEK-blue EC50” value worked out at 0.04 nM. Further, the “IFNγ release NK-92 assay EC50” value in assay [3] was determined as 0.0018 nM. Further, the “Hek Blue reporter assay EC50” value in assay [2] is 0.057 pM. Also, the “IFNg release PBMCs assay EC50” value in assay [4] was determined as 0.0022 nM. In addition, in assay [5], the “HEK-Blue IL-18R reporter EC50” value stood at 0.034 pM.

B5: C185 (ligand)
chain: MAAEPVEDNCINFVAMKFIDNTLYFIAEDDENLESDPLGYFGKLKSKLSIIRNLNDQVLFIDQGNRPLFEDMTDSDARDNAPRTIFIISMYADSQPRGMAVAISVKCEKISTLSAENKIISFKEMNPPDNIKDTKSDIIFFQRSVPGHDNKMQFESSSYEGYFLAAEKERDLFKLILKKEDELGDRSIMFTVQNED
For the molecule B5, in assay [1], the “Fold potency loss vs C086” value was 60900 fold and the “HEK-blue EC50” value was found to be 2560 nM. In addition, in assay [3], the “IFNγ release NK-92 assay EC50” value was determined as 210 nM. Besides, in assay [2], the “Hek Blue reporter assay EC50” value came to 2790 pM. Further, the binding result in assay [6] is given as “no binding”.

B6: C127 (ligand)
chain: MAAEPVEDNCINFVAMKFIDNTLYFIAEDDENLESDSGGPGPAGMKGLPGSYFGKLKSKLSIIRNLNDQVLFIDQGNRPLFEDMTDSDARDNAPRTIFIISMYADSQPRGMAVAISVKCEKISTLSAENKIISFKEMNPPDNIKDTKSDIIFFQRSVPGHDNKMQFESSSYEGYFLAAEKERDLFKLILKKEDELGDRSIMFTVQNED
For B6, in assay [1], the “Fold potency loss vs C086” value stood at 7000 fold and the “HEK-blue EC50” value came to 295 nM. Also, the “Hek Blue reporter assay EC50” value in assay [2] amounted to 295 pM.

B7: C172 (ligand)
chain: YFGKLKSKLSIIRNLNDQVLFIDQGNRPLFEDMTDSDARDNAPRTIFIISMYADSQPRGMAVAISVKCEKISTLSAENKIISFKEMNPPDNIKDTKSDIIFFQRSVPGHDNKMQFESSSYEGYFLAAEKERDLFKLILKKEDELGDRSIMFTVQNESGGPGPAGMKGLPGSNIVPVLLGPKLNHVAVELGKNVRLNCSALLNEEDVIYWMFGEENGSDPNIHEEKEMRIMTPEGKWHASKVLRIENIGESNLNVLYNCTVASTGGTDTKSFILVRKADHHHHHH
With B7, in assay [1], the “Fold potency loss vs C086” value came out at 26 fold and the “HEK-blue EC50” value stood at 1.09 nM. Also, in assay [2], the “Hek Blue reporter assay EC50” value is 1.09 pM.

B8: C189 (ligand)
chain: YFGKLKSKLSIIRNLNDQVLFIDQGNRPLFEDMTDSDARDNAPRTIFIISMYADSQPRGMAVAISVKCEKISTLSAENKIISFKEMNPPDNIKDTKSDIIFFQRSVPGHDNKMQFESSSYEGYFLAAEKERDLFKLILKKEDELGDRSIMFTVQNESGGPGPAGMKGLPGSNIVPVLLGPKLNHVAVELGKNVRLDCSALLNEEDVIYWMFGEEDGSDPNIHEEKEMRIMTPEGKWHASKVLRIENIGESNLNVLYDCTVASTGGTDTKSFILVRKADHHHHHH
For the molecule B8, in assay [1], the “Fold potency loss vs C086” value stood at 10 fold and the “HEK-blue EC50” value was determined as 0.43 nM. In addition, the “Hek Blue reporter assay EC50” value in assay [2] was 0.43 pM.

B9: C137 (ligand)
chain: YFGKLKSKLSIIRNLNDQVLFIDQGNRPLFEDMTDSDARDNAPRTIFIISMYADSQPRGMAVAISVKCEKISTLSAENKIISFKEMNPPDNIKDTKSDIIFFQRSVPGHDNKMQFESSSYEGYFLAAEKERDLFKLILKKEDELGDRSIMFTVQNEGGGGSGGGGSGGGGSNIVPVLLGPKLNHVAVELGKNVRLNCSALLNEEDVIYWMFGEENGSDPNIHEEKEMRIMTPEGKWHASKVLRIENIGESNLNVLYNCTVASTGGTDTKSFILVRKADHHHHHH
With B9, in assay [1], the “Fold potency loss vs C086” value amounted to 49 fold and the “HEK-blue EC50” value amounted to 2.08 nM. The “Hek Blue reporter assay EC50” value in assay [2] is 2.08 pM.

B10: C136 (ligand)
chain: YFGKLKSKLSIIRNLNDQVLFIDQGNRPLFEDMTDSDARDNAPRTIFIISMYADSQPRGMAVAISVKCEKISTLSAENKIISFKEMNPPDNIKDTKSDIIFFQRSVPGHDNKMQFESSSYEGYFLAAEKERDLFKLILKKEDELGDRSIMFTVQNEGGSGGSNIVPVLLGPKLNHVAVELGKNVRLNCSALLNEEDVIYWMFGEENGSDPNIHEEKEMRIMTPEGKWHASKVLRIENIGESNLNVLYNCTVASTGGTDTKSFILVRKADHHHHHH
For B10, in assay [1], the “Fold potency loss vs C086” value was 21 fold and the “HEK-blue EC50” value is 0.884 nM. The “Hek Blue reporter assay EC50” value in assay [2] worked out at 0.884 pM.

B11: C191 (ligand)
chain: YFGKLKSKLSIIRNLNDQVLFIDQGNRPLFEDMTDSDARDNAPRTIFIISMYADSQPRGMAVAISVKCEKISTLSAENKIISFKEMNPPDNIKDTKSDIIFFQRSVPGHDNKMQFESSSYEGYFLAAEKERDLFKLILKKEDELGDRSIMFTVQNESGGPLGLAGGSNIVPVLLGPKLNHVAVELGKNVRLNCSALLNEEDVIYWMFGEENGSDPNIHEEKEMRIMTPEGKWHASKVLRIENIGESNLNVLYNCTVASTGGTDTKSFILVRKADHHHHHH
Regarding B11, in assay [1], the “Fold potency loss vs C086” value amounted to 48 fold and the “HEK-blue EC50” value amounted to 2.02 nM. In addition, in assay [2], the “Hek Blue reporter assay EC50” value came out at 2.02 pM.
